Patent publication US20180030149A1 (AVEO PHARMACEUTICALS, published 2018)
Numbering of substitutions follows the chain as printed.

B1: 18H02 (antibody, mouse IgG1, kappa, V domains shown)
VH: QIQLVQSGPELKKPGEAVKISCKSSGYTFTTYGMSWVKQAPGRALKWMGWINTYSGVPTYADDFKGRFAFSLESSASTAYLQINNLKNEDTATYFCARGRDGYQVAWFAYWGQGTLVTVSA
VL: ETTVTQSPASLSMAIGDKVTIRCITSTDIDDDMNWFQQKPGEPPKLLISEGNTLRPGVPSRFSGSGYGTDFIFTIENMLSEDVADYYCLQSDNLPYTFGGGTKLEIKR
notes: Murine IgG1/kappa, from hybridoma; also called anti-hErbB3 monoclonal antibody 18H02
B2: 24C05 (antibody, mouse IgG1, kappa)
heavy: EVQLVESGGGLVKPGGSLKLSCAASGFTFSDYAMSWVRQTPEKRLEWVATISDGGTYTYYPDNVKGRFTISRDNAKNNLYLQMSHLKSEDTAMYYCAREWGDYDGFDYWGQGTTLTVSSAKTTPPSVYPLAPGSAAQTNSMVTLGCLVKGYFPEPVTVTWNSGSLSSGVHTFPAVLQSDLYTLSSSVTVPSSTWPSQTVTCNVAHPASSTKVDKKIVPRDCGCKPCICTVPEVSSVFIFPPKPKDVLTITLTPKVTCVVVDISKDDPEVQFSWFVDDVEVHTAQTQPREEQFNSTFRSVSELPIMHQDWLNGKEFKCRVNSAAFPAPIEKTISKTKGRPKAPQVYTIPPPKEQMAKDKVSLTCMITDFFPEDITVEWQWNGQPAENYKNTQPIMDTDGSYFVYSKLNVQKSNWEAGNTFTCSVLHEGLHNHHTEKSLSHSPGK
light: DIQMTQSPSSLSASLGERVSLTCRASQEISGYLSWLQQKPDGTIKRLIYAASTLDSGVPKRFSGSRSGSDYSLTIGSLESEDLADYYCLQYDSYPYTFGGGTKLEIKRADAAPTVSIFPPSSEQLTSGGASVVCFLNNFYPRDINVKWKIDGSERQNGVLNSWTDQDSKDSTYSMSSTLTLTKDEYERHNSYTCEATHKTSTSPIVKSFNRNEC
notes: Murine IgG1/kappa, from hybridoma; also called murine 24C05; 24C05 IgG1
B3: 11G01 (antibody, mouse IgG1, kappa, V domains shown)
VH: QVQLQQSDAELVKPGASVKISCKVSGYTFTDHIIHWMKQRPEQGLEWIGYIYPRDGYIKYNEKFKGKATLTADKSSSTAYMQVNSLTSEDSAVYFCARGYYYAMDYWGQGTSVTVSS
VL: DVLMTQTPLSLPVSLGDQASISCRSSQSIVHSIGNTYLEWYLQKPGQSPKLLIYKVSNRFSGVPERFSGSGSGTDFTLKISRVEAEDLGVYYCFQGSHVPFTFGSGTKLEIKR
notes: Murine IgG1/kappa, from hybridoma; also called anti-hErbB3 monoclonal antibody 11G01
B4: 12A07 (antibody, mouse IgG1, kappa, V domains shown)
VH: QVQLLQPGAELVRPGTSVKLSCKTSGYTFSSYWMHWVKQRPGQGLEWIGMIDPSDVYTNYNPKFKGKATLTVDTSSSTAYMQLSSLTSEDSAVYYCARNYSGDYWGQGTTLTVSS
VL: B3 VL with T7I, I33N, E65D, H98Y, F101W, S105G
notes: Murine IgG1/kappa, from hybridoma; also called anti-hErbB3 monoclonal antibody 12A07
B5: 04D01 (antibody, mouse IgG1, kappa, V domains shown)
VH: QVQLQQPGAELVRPGTSVKLSCKASGYTFTSHWLHWVKQRPGQGLEWIGVLDPSDFYSNYNQNFKGKATLTVDTSSSTAYMQLSSLTSEDSAVYYCARGLLSGDYAMDYWGQGTSVTVSS
VL: B3 VL with T7I, I33N, L51S, E65D, H98Y, F101W, S105G
notes: Murine IgG1/kappa, purified from hybridoma; also called anti-hErbB3 monoclonal antibody 04D01
B6: 22A02 (antibody, mouse IgG1, kappa, V domains shown)
VH: B4 VH with L5Q, T24A, S30T, S31N, V56S
VL: B3 VL with I33N, E65D, H98Y, F101W, S105G
notes: Murine IgG1/kappa, from hybridoma; also called anti-hErbB3 monoclonal antibody 22A02
B7: Sh24C05-31 (antibody, human IgG1, kappa, V domains shown)
VH: QVQLVESGGGLVKPGGSLRLSCAASGFTFSDYAMSWIRQAPGKGLEWVSTISDGGTYTYYPDNVKGRFTISRDNAKNSLYLQMNSLRAEDTAVYYCAREWGDYDGFDYWGQGTLVTVSS
VL: DIQMTQSPSSLSASVGDRVTITCRASQEISGYLSWYQQKPGKAPKRLIYAASTLDSGVPSRFSGSGSGTEFTLTISSLQPEDFATYYCLQYDSYPYTFGQGTKLEIKR
notes: Humanized, human IgG1/kappa
B8: Sh24C05-1 (antibody, human IgG1, kappa)
heavy: not shown
light: DIQMTQSPSSLSASLGERVSLTCRASQEISGYLSWLQQKPDGTIKRLIYAASTLDSGVPKRFSGSRSGSDYSLTIGSLESEDLADYYCLQYDSYPYTFGGGTKLEIKRTVAAPSVFIFPPSDEQLKSGTASVVCLLNNFYPREAKVQWKVDNALQSGNSQESVTEQDSKDSTYSLSSTLTLSKADYEKHKVYACEVTHQGLSSPVTKSFNRGEC
notes: Chimeric: mouse 24C05 variable regions, human IgG1/kappa constant regions; also called Chimeric 24C05

What was measured:
human ErbB3 [1] = biological target: T1, human ErbB3 (human, UniProt P21860 20-1342); experiment: cell-based or functional assay
human ErbB3 [2] = biological target: T1, human ErbB3; experiment: cell-based or functional assay; remark: listed apart in the source
[3] = biological target: T2, recombinant human ErbB3/Fc fusion protein (human, UniProt P21860 20-643); experiment: ECL competition; inhibition of NRG1-β1 binding to plate-coated rhErbB3/Fc
T2 construct: Bought (R&D Systems, Cat. No. 348-RB); the NRG1-α1 assay names Cat. No. 4518-RB instead; also called rhErbB3-Fc; rhErbB3/Fc; not shown: Fc portion of the bought fusion protein
Procedure: (§1) MA2400 96-well standard binding plates (Meso Scale Discovery, Cat. No. L15XA-6) were coated with 50 μl of 0.5 μg/mL rhErbB3/Fc (R&D systems, Cat. No. 348-RB) in PBS (Invitrogen, Cat. No. 14040-133) for overnight at 4° C. with no agitation. The plates then were washed 3 times with PBS+0.1% Tween20 (Sigma P5927) and blocked with 200 μl of PBS containing 5% BSA (Sera Care Life Sciences, Cat. No. AP-4510-80) for 1.5 hour at room temperature. After washing the plates 3 times with PBS, 25 μl of the antibody dilutions were added to the plates for another hour at room temperature with agitation. […] The plates then were washed 3 times with PBS, and 150 μl of 1× read buffer (Meso Scale Discovery, Cat. No. R92TC-1) was added to each well before the plates were analyzed on a Sector® Imager 2400 (Meso Scale Discovery) instrument.

[4] = biological target: T2, recombinant human ErbB3/Fc fusion …; experiment: SPR Biacore T100, 25 C; antibody captured on anti-mouse IgG, rhErbB3-Fc injected
Procedure: Rabbit anti-mouse IgGs (Biacore, Cat. No. BR-1008-38) were immobilized on carboxymethylated dextran CM4 sensor chips (Biacore, Cat. No. BR-1005-34) by amine coupling (BIAcore, Cat. No. BR-1000-50) using a standard coupling protocol according to vendor's instructions. The analyses were performed at 25° C., using PBS (Invitrogen, Cat. No. 14040-133) containing 0.05% surfactant P20 (Biacore, Cat. No. BR-1000-54) as running buffer.
The antibodies were captured in individual flow cells at a flow rate of 10 μl/minute. Injection time was varied for each antibody to yield an Rₘₐₓ between 30 and 60 RU. […] The dissociation phase was monitored for up to 3600 seconds. The surface was then regenerated with two 60-seconds injection of 10 mM Glycine-HCl, pH 1.7 (made from Glycine pH 1.5 (Biacore, Cat. No. BR-1003-54) and pH 2.0 (Biacore, Cat. No. BR-1003-55)) at a flow rate of […].
(§2) Kinetic parameters were determined using the kinetic function of the BIAevaluation software (Biacore) with double reference subtraction. Kinetic parameters for each antibody, kₐ (association rate constant), kd (dissociation rate constant) and KD (equilibrium dissociation constant) were determined.

[5] = biological target: T2, recombinant human ErbB3/Fc fusion …; experiment: ECL (MSD) competition: rhErbB3/Fc coated on the plate, antibody dilutions, then NRG1-β1 at 0.25 µg/ml; bound NRG1-β1 detected
Procedure: as §1

[6] = biological target: T3, recombinant human ErbB3 monomeric protein (cleaved rhErbB3) (human, UniProt P21860 20-643, limits assumed); experiment: SPR Biacore 37 C; supernatant antibody captured on anti-human Fc, cleaved rhErbB3 injected
T3 construct: Monomer made by protease cleavage of the Fc fusion; also called Monomeric ErbB3
Procedure: (§3) The analyses were performed at 37° C. using PBS (Invitrogen, Catalog No. 14040-133) containing 0.05% surfactant P20 (Biacore, Catalog No. BR-1000-54) as running buffer.
(§4) The antibodies were captured in individual flow cells at a flow rate of […]. Injection time was varied for each antibody to yield an Rₘₐₓ between 30 and 60 RU. […] The dissociation phase was monitored for up to 1200 seconds. The surface was then regenerated with two 60 second injections of Glycine pH 2.25 (made from Glycine pH 2.0 (Biacore, Catalog No. BR-1003-55) and pH 2.5 (Biacore, Catalog No. BR-1003-56)) at […].
as §2

[7] = biological target: T3, recombinant human ErbB3 monomeric …; experiment: SPR Biacore 37 C; purified antibody captured on anti-human Fc, cleaved rhErbB3 0.3125-5.0 nM
Procedure: as §3, §4
The binding affinities and kinetics of certain purified monoclonal antibodies were also determined. To further characterize certain antibodies, the surface plasmon resonance experiments described above were conducted using concentrations of cleaved rhErbB3 between 0.3125 nM and 5.0 nM (a 2-fold serial dilution).

| Binder | inhibition of NRG1-β1 induced phosphorylation of Akt in MCF7 and DU145 cells (ELISA) (human ErbB3 [1]) | inhibition of NRG1-β1 induced phosphorylation of ErbB3 in SKBR-3 cells (ELISA, 5 µg/ml antibody) (human ErbB3 [1]) | IC50, NRG1-β1 dependent proliferation of MCF7 cells (MTT) (human ErbB3 [2]) | IC50 [3] | Kd [4] | koff [4] | kon [4] | IC50 (read off the curve) [5] | Kd [6] | koff [6] | kon [6] | Kd [7] | koff [7] | kon [7] |
| --- | --- | --- | --- | --- | --- | --- | --- | --- | --- | --- | --- | --- | --- | --- |
| B1 | ≥ 80% | ≥ 50% | 1 nM | 0.346 nM | 0.091 nM | 2.5e-05 s⁻¹ | 280000 M⁻¹ s⁻¹ | ~0.3 nM | – | – | – | – | – | – |
| B2 | ≥ 80% | ≥ 50% | 0.39 nM | 0.337 nM | 0.0065 nM | 9.2e-06 s⁻¹ | 1.5e+06 M⁻¹ s⁻¹ | ~0.3 nM | – | – | – | – | – | – |
| B3 | ≥ 80% | ≥ 50% | 1.98 nM | – | 0.091 nM | 2.2e-05 s⁻¹ | 270000 M⁻¹ s⁻¹ | – | – | – | – | – | – | – |
| B4 | ≥ 80% | ≥ 50% | 0.74 nM | 0.235 nM | 0.3 nM | 0.00019 s⁻¹ | 620000 M⁻¹ s⁻¹ | ~0.2 nM | – | – | – | – | – | – |
| B5 | ≥ 80% | ≥ 50% | 0.47 nM | 0.223 nM | 0.25 nM | 9.3e-05 s⁻¹ | 380000 M⁻¹ s⁻¹ | ~0.1 nM | – | – | – | – | – | – |
| B6 | ≥ 80% | ≥ 50% | 1.62 nM | 0.242 nM | 0.32 nM | 0.00022 s⁻¹ | 700000 M⁻¹ s⁻¹ | ~0.2 nM | – | – | – | – | – | – |
| B7 | – | – | – | – | – | – | – | – | 0.0865 nM | 0.000292 s⁻¹ | 3.47e+06 M⁻¹ s⁻¹ | 0.063 nM | 0.00028 s⁻¹ | 4.7e+06 M⁻¹ s⁻¹ |
| B8 | – | – | – | – | – | – | – | – | 0.178 nM | 0.000448 s⁻¹ | 2.52e+06 M⁻¹ s⁻¹ | 0.14 nM | 0.00044 s⁻¹ | 3.5e+06 M⁻¹ s⁻¹ |
